{"source": "patent US20250101446A1", "about": "“METHOD FOR GENETIC TRANSFORMATION OF PLANT ORGANELLE GENOME AND USES THEREOF” (Solar Grants Biotechnology Inc., priority 2022, published 2025)", "molecules": {"B1": {"name": "plant-produced recombinant human IL-38, mature form C2-W152 with C-terminal 7xHIS tag (ligand)", "chain": "CSLPMARYYIIKYADQKALYTRDGQLLVGDPVADNCCAEKICILPNRGLARTKVPIFLGIQGGSRCLACVETEEGPSLQLEDVNIEELYKGGEEATRFTFFQSSSGSAFRLEAAAWPGWFLCGPAEPQQPVQLTKESEPSARTKFYFEQSWHHHHHHH", "notes": "range 2-152; also called rhIL-38; plantakine IL-38"}}, "test_system": "human metastatic breast cancer cell line MDA-MB-231", "experiment": "IL-6 secretion by MDA-MB-231 cells (P1 stimulation, plantakine pre-incubation; ELISA)", "format": "cell-based", "conditions": "pre-incubated 3 h at the indicated concentrations", "procedure": "IL-6 secretion by the human metastatic breast cancer cell line MDA-MB-231 into the conditioned media was measured by ELISA. The cells were pre-incubated for 3 h in the presence of plant-produced recombinant IL-38 or IL-37b at the indicated concentrations (ng/ml) prior to stimulation with peptide P1 (10 mM). PBS (1×) was added to the control. Shown are the average results of 3 independent experiments. ** P<0.01; * P<0.05, compared with the control.\nCorrect folding of plant-produced IL-38 and IL-37b anti-inflammatory cytokines was assessed by enzyme-linked immunosorbent assay (ELISA) using the DuoSet Human IL-38/IL-1F10 kit (R&D systems) and the Human IL-37/IL-1F7 uncoated ELISA kit (Invitrogen), respectively, following the instructions of the manufacturers. Secreted IL-6 was assessed using the Human IL-6 Uncoated ELISA kit (Invitrogen)."}
{"molecule": "B1", "values": [{"measurement": "attenuating effect on P1-induced IL-6 secretion (in words)", "value": "dose-dependent"}]}
